Biological target: T1, gp130-ICD (Homo sapiens, UniProt P40189)
T1 construct: in order to isolate the intracellular portion of human gp130; expressed in transfected cells; host or cells: Saccharomyces cerevisiae strain CG-1945; cDNA obtained by RT-PCR from HepG2 cells and cloned into pGADGH (also pAS2-1)
T1 sequence (P40189 642-918 limits assumed): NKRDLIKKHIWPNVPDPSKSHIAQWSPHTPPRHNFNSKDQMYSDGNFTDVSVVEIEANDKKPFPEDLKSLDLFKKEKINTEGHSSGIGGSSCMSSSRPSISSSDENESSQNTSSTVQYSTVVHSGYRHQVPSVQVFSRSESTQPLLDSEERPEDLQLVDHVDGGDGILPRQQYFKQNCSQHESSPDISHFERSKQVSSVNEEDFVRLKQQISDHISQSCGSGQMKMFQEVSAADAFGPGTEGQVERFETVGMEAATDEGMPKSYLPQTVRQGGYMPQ
Test: Liquid β-galactosidase (LacZ) assay in yeast two-hybrid system
Format: cell-based
Conditions: combination of clone E and gp130-ICD in yeast cells; three independent experiments
Excerpt: We have also performed liquid β-galactosidase assays to quantify transcriptional activity: as shown in the FIG. 5, in the presence of gp130-ICD/GAL4AD the fusion protein clone E/GAL4BD was able to produce a transcriptional activity of lacZ gene about 2 to 3 fold higher than in the absence of gp130-ICD/GAL4AD, thus confirming the interaction detected after the first selection.
Liquid β-Galactosidase Assay
We prepared 5-ml overnight culture in liquid SD selection medium appropriate for plasmids.
We transferred 2 ml of the culture to 8 ml of YPD and incubate at 30° C. for 3-5 hours until the cells are in the mid-log phase (O.D.600=0.5-0.8).
The culture was centrifuged at 14,000 rpm for 30 seconds: in the next step, we remove the supernatants, wash the cells with a volume of Z-buffer and resuspend the pellet in 900 μl of Z buffer.
Immediately, two or more freeze/thaw cycles were performed, placing the tubes in liquid nitrogen and in a 37° C. water bath for 0.5-1 minute. […]
The reaction was stopped by adding 0.4 ml of 1 M Na2CO3: we recorded the time needed to obtain the results and O.D.420 of the samples.
β-galactosidase units were calculated by this formula: β-galactosidase units=1,000×O.D.420/(t×V×O.D.600) […]

Substance: Clone E: peptide isolated by THS, homology group II, SEQ ID NO:6; homology with JAK1 JH4 domain (WGDNEWWRSEPHKMEL)
- β-galactosidase (LacZ) activity in liquid assay: about 3 units/ml

From US6838433B2, “IL-6 antagonist peptides” (Applied Research Systems ARS Holding N.V., priority 1998, dated 2005)
